Experimental data taken from US20240255522A1.

Legend:
Conditions in all cases: modification not given
[1] = biological target: HLA-DRB1*04:01 MHCII molecule (human); test: competition ELISA; 50 nM huCLIP-bio
[2] = biological target: HLA-DRB1*08:01 MHCII molecule (human); test: competition ELISA; 50 nM huCLIP-bio
[3] = biological target: HLA-DRB1*09:01 MHCII molecule (human); test: competition ELISA; 50 nM huCLIP-bio
[4] = biological target: HLA-DRB1*11:01 MHCII molecule (human); test: competition ELISA; 50 nM huCLIP-bio
[5] = biological target: HLA-DRB1*15:01 MHCII molecule (human); test: competition ELISA; 50 nM huCLIP-bio
[6] = biological target: HLA-DRB1*04:01 MHCII molecule (human); test: competition ELISA; 25 nM huCLIP-bio
[7] = biological target: HLA-DRB1*08:01 MHCII molecule (human); test: competition ELISA; 25 nM huCLIP-bio
[8] = biological target: HLA-DRB1*09:01 MHCII molecule (human); test: competition ELISA; 25 nM huCLIP-bio
[9] = biological target: HLA-DRB1*11:01 MHCII molecule (human); test: competition ELISA; 25 nM huCLIP-bio
[10] = biological target: HLA-DRB1*15:01 MHCII molecule (human); test: competition ELISA; 25 nM huCLIP-bio

PVSQMRMATPLLMRP [mCLIP]
IC50 [1]: 36.5 nM | IC50 [2]: 69.4 nM | IC50 [3]: 60.7 nM | IC50 [4]: 36.8 nM | IC50 [5]: 46.1 nM | IC50 [6]: 31.2 nM | IC50 [7]: 36.6 nM | IC50 [8]: 25 nM | IC50 [9]: 22.6 nM | IC50 [10]: 14.6 nM
